{
  "source": "the DeepSol protein solubility set",
  "experiment": "soluble on expression in E. coli; label from the status in PepcDB or PDB records",
  "data": [
    {"sequence": "MSDSIQERYLVGYALAAKKQHSFIQPSLIEHSRQRGIDLVKLDPTKSLLEQGKLDCIIHKLYDVYWKENLHEFREKCPGVPVIDLPEAIERLHNRVSMLEVITQLRFPVSDSERFGVPEQVVVMDSSVLSGGGALGELKFPVIAKPLDADGSAKSHKMFLIYDQEGMKILKAPIVLQEFVNHGGVIFKVYVVGDHVKCVKRRSLPDISEEKIGTSKGSLPFSQISNLTAQEDKNIEYGEDRSLEKVEMPPLSFLTDLAKAMRESMGLNLFNFDVIRDAKDANRYLIIDINYFPGYAKMPSYEPVLTEFFWDMVTKKNHV", "values": [
      {"measurement": "soluble on expression in E. coli", "result": "soluble"}
    ]},
    {"sequence": "MAHHHHHHMGVGLSTVRHAGTAILVPTVSAASTAVLPLSSEERVAALPGTTTPPAAAAAPAPPTAEHTSNPRQRLTDTPAAHAAVSLPHAAPKPHRRFLPYPEEASALATPPPAAVLTAAPVVVEAAVKRHRKGSRVTKPLHPAQASLFTWAEGGQRNATGDAIIAGDHLRRRCCPDAGVVANRSMDCDEDATLVVRSPDEGRRSGTSLQSEGGLYGEKGQRQFAASGQWSPSPASPEAEEVAATVCASVNATAVENAPSGPAAPLLSSAFTAYRPVARSASPGPALGQYEGLPLTSVQQVLESKHKVYRICLTGGPCAGKSTMLSAIQAKIPQRTGFRVMCVPEAATLLVTGGMQWDGDLTVPQQLGLLRTQLALEDQFYALAVASHVPTVIVSDRGTMDGRAFCTDAQFQEILRGVGSTIDVLRDRYDAVIHMVTAADGAEEFYNLDNPARYEDLDGARASDLRLQRMYVGHPMFRLLDNSTTFEDKIERGLQVVSQVVHKEQCAPALPTYYLVRRCPAELPVASATYTTYTTVLGNSQISDIRLLVKREMADGSTMHFFKSVRDAPSTVPSSRAPPRATSHASSGASFRSSVNAPTVSTASPTQQRTRAPNASAAASTRACASTATAPALRW", "values": [
      {"measurement": "soluble on expression in E. coli", "result": "not soluble"}
    ]},
    {"sequence": "MEGLGRSCLWLRRELSPPRPRLLLLDCRSRELYESARIGGALSVALPALLLRRLRRGSLSVRALLPGPPLQPPPPAPVLLYDQGGGRRRRGEAEAEAEEWEAESVLGTLLQKLREEGYLAYYLQGGFSRFQAECPHLCETSLAGRAGSSMAPVPGPVPVVGLGSLCLGSDCSDAESEADRDSMSCGLDSEGATPPPVGLRASFPVQILPNLYLGSARDSANLESLAKLGIRYILNVTPNLPNFFEKNGDFHYKQIPISDHWSQNLSRFFPEAIEFIDEALSQNCGVLVHCLAGVSRSVTVTVAYLMQKLHLSLNDAYDLVKRKKSNISPNFNFMGQLLDFERSLRLEERHSQEQGSGGQASAASNPPSFFTTPTSDGAFELAPT", "values": [
      {"measurement": "soluble on expression in E. coli", "result": "soluble"}
    ]},
    {"sequence": "MRGSHHHHHHGSSQVADKDDPTNKFYQSVIQLGNGFLDVFTSFGGLVAEAFGFKSDPKKSDVKTYFTTVAAKLEKTKTDLNSLPKEKSDISSTTGKPDSTGSVGTAVEGAIKEVSELLDKLVKAVKTAEGASSGTAAIGEVVADADAAKVADKASVKGIAKGIKEIVEAAGGSEKLKAVAAAKGENNKGAGKLFGKAGAAAHGDSEAASKAAGAVSAVSGEQILSAIVTAADAAEQDGKKPEEAKNPIAAAIGDKDGGAEFGQDEMKKDDQIAAAIALRGMAKDGKFAVKDGEKEKAEGAIKGAAESAVRKVLGAITGLIGDAVSSGLRKVGDSVKAASKETPPALNK", "values": [
      {"measurement": "soluble on expression in E. coli", "result": "soluble"}
    ]},
    {"sequence": "MKILNRLATDVGLMLRRPPRQQYAALCYRLSKSNPEPEVLLLTSRDTGRWVIPKGWPMANKKAHAVAEQEAYEEAGVKGTVEKAPFGYYEYEKKLNSGINVPCKVQVHLLEVSEMRDSFPEKDARRLEWVSPREAGKRVNEPELKALMLAFDKRMAHSQ", "values": [
      {"measurement": "soluble on expression in E. coli", "result": "not soluble"}
    ]},
    {"sequence": "MSDVKSVIESGRAVLGIEFGSTRIKAVLIGEDHAPIATGAHDWENMLVDGIWTYSLDMIWEGISDCYSKMAQDAKEKYGVTIKKLAAIGISGMMHGYLPFDEEDNLLVPFRTWRNTITGEAAAELTEVLGFNIPQRWSIAHLYQAILNKEEHVSKISYFTTLAGYIHWQLTGEKVMGVGEASGMFPIDSKTRDYDAAMLDKFAALDKVKEYPWDIRDILPKVLTAGEKAGTLTEEGAKRLDVSGNLESGILLAPPEGDAGTGMVATNSVAVRTGNVSAGTSVFAMVVLEKALKAVHEELDMVTTPSGDAVAMVHCNNCTSDLNAWVGLFKEFSELFGMDIDMNDIYGKLYNNALTADKDCGGLVAFNLFSGEPVIGLNEGRPMFARKPDARMNLANFMRTHLYASLATLKIGCDILFKEEKVKVDTLYGHGGLFKTKGVGQSILAAAMDAPVAVMETAGEGGPWGMAVLAAYMVNKADGEPLEKYLSDRVFNGEKGIVMQPDPDDVKGFDEYINTYKAAIEAERAMVKALPLLEHHHHHH", "values": [
      {"measurement": "soluble on expression in E. coli", "result": "soluble"}
    ]},
    {"sequence": "SKSNLEYSFSNILKNIFSPIREKESVKKVIYYSIPIALTTASYRLVNDLDGIFILSMLGAYDNGVYGY", "values": [
      {"measurement": "soluble on expression in E. coli", "result": "not soluble"}
    ]},
    {"sequence": "SDNGDWGHRLTHPVTLNVGGHLYTTSISTLQRYPDSMLGAMFRGDFPTTRDAQGNYFIDRDGTLFRYILNFLRTSELTLPVDFTELDLLRKEADFYQIEPLIQCLNDPKPLYPLDTFEQVVELSSTRKLSKYSNPVAVIITQLTITTKVHSLLEGISNNFTKWNKHMMDTRDCQVSFTFGPCDYHQEVSLRVHLMDYITKQGFTIRNTRVHHMSERANENTVEHHWTFCRLAYKVED", "values": [
      {"measurement": "soluble on expression in E. coli", "result": "soluble"}
    ]},
    {"sequence": "MTNLTNYHSHCLYCDGRANMEDFIRFAISEGFSSYGISSHAPLPFSTAWTMEWDRMDDYLSEFARLKEKYADKIELAIGLEIDYLNEESHPAIPRFQELPLDYRIGSVHMLYSPQGKVVDIDTPADIFRQLIDAHFEGDLDYVVHLYYKNLLRMVELGGFDILGHADKMHYNASCYRPGLLDEPWYDALVRDYFAEIARHGYIVEINTKSYHDLGTFYPNERYFPLLKELGIRVQVNSDAHYPERINNSRAEALAALKKVGFDTVVEWHGGQWKDMPLLQ", "values": [
      {"measurement": "soluble on expression in E. coli", "result": "not soluble"}
    ]},
    {"sequence": "MGSDKIHHHHHHMERFFIVGCGDIGKKVARIALADGAGVAALIRSPEKAESLREMGVTALEANLDERDSLAGMPTRGAVVFYFAPPPGGGVTDPRVRAFCDAIAPGEEPRKIVYLSTSGVYGDCGGDVVTEETPPNPQTSRARRRYDAETVFRQWGAERGVPVVILRVTGIYGPGRLPLQQLTSGQPVLEESLAPFTNRIHSEDLARICLAAAEHGEDGDIFNVSDGHPTTMTAYFDACADALGLPRPRRVTLEEARRVMTPLMFSYVTESRKMDNRLMREKLHVTLLYPTMQEGVRSSVA", "values": [
      {"measurement": "soluble on expression in E. coli", "result": "not soluble"}
    ]},
    {"sequence": "MSLTTELKTEALPTRTQVDPKHCWDTTLMYANREEWKKDFDLCSSGKDRSPIWPEFSPSHYQIDNPESLLELLSKKFSVERKLDQLYIYAHLIHDQDITNPEGESDYQSIVYLYTLFSQEISWIQPALIALSEEKVAALLSSSVLAPYRFYLEKIFRLSPHTGTANEEKILASSFAALNVSNKAFSSLSDAEIPFGIAKDSNGEEHPLSHALASLYMQSPDQELRRTAYLAQFQRYYDYRNTFANLLNGKVQAHLFEAKARNYPSCLEASLFQHNIPTTVYINLINETKKHTSLINRYFNLKKEALNLKEFHFYDVYAPISQTTSKNYSYEEGVDLVCKSLLPLGTHYVEILRNGLLSNRWVDRYENKHKRSGAYSSGCYDSAPYILLNYTNTLYDVSVIAHEAGHSMHSYFSREAQPYHDAQYPLFLAEIASTFNEMLLMEALSKSDQSKEDKIVIITKTLDTIFATLFRQTFFAAFEYEIHSAAEQGTPLTEEFLSATYGNLQKEFYGGVVTSDSLSALEWARIPHFYYNFYVYQYATGIIAALSFAEKILTQEPGALELYLKFLKSGRSDFPLNILKKSGLDMTTSAPLDKAFAFITKKIDLLSSLLSEDEGHHHHHH", "values": [
      {"measurement": "soluble on expression in E. coli", "result": "soluble"}
    ]},
    {"sequence": "MMLVTAHDMPIFAPTCNLMTISHQPLPSHLVRKSSSLHIAASTIHVKFIVRSHVIKMIAGIFLVCECHAKGGANSITASKQSPIIADLYDMKILIVFCLSYTNLIASKVKKQ", "values": [
      {"measurement": "soluble on expression in E. coli", "result": "soluble"}
    ]},
    {"sequence": "MYHLKKQRIMGAVKRNTLSVLFIIKKAKLLKNGEAPVCMRITVNKRVAEVMIKRSIPVDLWNQKKECSKGKDRVAIELNHYINTVRAKVLQIHRELEIDNKPITADIIKDCFYGRDKVQRSLQEVYKEHNEKCRALIGKEYTESTVIKFDTSINRLKEYIRSCYHRDDIMLAELDGQFIRDFDFWLKTEKHCQNNSALKHLKNLKKVVRIALANDWIKKDPFYGIHFKQEEVNVEFLSREELDILMNKEFAIKRLEQVRDIFVFCCFTALAFVDVQQLSREHLIKDNSGALWIRKARQKTNQMCNIPVLSIPQRILRKYEDNAECIKKGVLLPVISNQRMNAYLKEIADLCGITKRLTTHVARHTAATIVFLANDVSMENVSKILGHSNIRMTQHYAKVLDSSIMRDMVNVEKNFK", "values": [
      {"measurement": "soluble on expression in E. coli", "result": "not soluble"}
    ]}
  ]
}
